# Measured values from US20070036786A1 (published 2007).
# Residue numbers refer to the chain shown, from its start.
# B1: hu3G8VH-1/hu3G8VL-1 (antibody, human IgG1, kappa)
# heavy: not shown
# light: DIVMTQSPDSLAVSLGERATINCKASQSVDFDGDSFMNWYQQKPGQPPKLLIYTTSNLESGVPDRFSGSGSGTDFTLTISSLQAEDVAVYYCQQSNEDPYTFGQGTKLEIKRTVAAPSVFIFPPSDEQLKSGTASVVCLLNNFYPREAKVQWKVDNALQSGNSQESVTEQDSKDSTYSLSSTLTLSKADYEKHKVYACEVTHQGLSSPVTKSFNRGEC
# notes: Heavy chain Hu3G8VH-1G1, light chain Hu3G8VL-1K; also called Hu3G8-1.1
# B2: hu3G8VH-20/hu3G8VL-1 (antibody)
# VH: QVTLRESGPALVKPTQTLTLTCTFSGFSLSTSGVGVGWIRQPPGKALEWLAHIWWDDDKRYSPSLKSRLTISKDTSKNQVVLTMTNMDPVDTATYYCARINPAWFAYWGQGTLVTVSS
# light: B1 light
# notes: VH fused to human Cγ1 constant region
# B3: hu3G8VH-22/hu3G8VL-1 (antibody)
# VH: QVTLRESGPALVKPTQTLTLTCTFSGFSLSTSGVGVGWIRQPPGKALEWLAHIWWDDDKRYSPSLKSRLTISKDTSKNQVVLTMTNMDPVDTATYYCARINPAYFAYWGQGTLVTVS
# light: B1 light
# notes: VH fused to human Cγ1 constant region (glycosylated form)
# B4: hu3G8VH-44/hu3G8VL-1 (antibody)
# VH: B2 VH with V2I, R5K, A10T, S72T, R99H, W104Y, A106D
# light: B1 light
# notes: as for B2
# B5: hu3G8VH-3/hu3G8VL-1 (antibody)
# VH: B2 VH with S30R, V34M, S62N, S64A
# light: B1 light
# notes: as for B2
# B6: hu3G8VH-5/hu3G8VL-1 (antibody)
# VH: B2 VH with V34M, S62N, S64A, R99Q
# light: B1 light
# notes: VH fused to human Cγ1 constant region (glycosylated form); also called Hu3G8-5.1
# B7: hu3G8VH-40/hu3G8VL-1 (antibody)
# VH: B2 VH with V2I, R5K, A10T, W54F
# light: B1 light
# notes: as for B2
# B8: hu3G8VH-25/hu3G8VL-1 (antibody)
# VH: B2 VH with R99H, W104Y
# light: B1 light
# notes: as for B2
# B9: hu3G8VH-43/hu3G8VL-1 (antibody)
# VH: B2 VH with V2I, R5K, A10T, S72T, W104Y
# light: B1 light
# notes: as for B2
# B10: hu3G8VH-14/hu3G8VL-1 (antibody)
# VH: B2 VH with V34M, D56N, S62N, S64A
# light: B1 light
# notes: as for B2
# B11: hu3G8VH-27/hu3G8VL-1 (antibody)
# VH: B2 VH with R99K, W104Y, A106D
# light: B1 light
# notes: as for B2
# B12: hu3G8VH-24/hu3G8VL-1 (antibody)
# VH: B2 VH with R99A, W104Y
# light: B1 light
# notes: as for B2
# B13: hu3G8VH-31/hu3G8VL-1 (antibody)
# VH: B2 VH with V2I, R5K, A10T
# light: B1 light
# notes: as for B2
# B14: hu3G8VH-19/hu3G8VL-1 (antibody)
# VH: B2 VH with V34M, S62N, S64A, R99Q, W104Y
# light: B1 light
# notes: as for B2
# B15: hu3G8VH-4/hu3G8VL-1 (antibody)
# VH: B2 VH with V34M, S62N, S64A, R99Q, A106D
# light: B1 light
# notes: as for B2
# B16: hu3G8VH-2/hu3G8VL-1 (antibody)
# VH: B2 VH with R5K, V34M, S62N, S64A
# light: B1 light
# notes: as for B2
# B17: hu3G8VH-35/hu3G8VL-1 (antibody)
# VH: B2 VH with V2I, R5K, A10T, R99Q, W104Y
# light: B1 light
# notes: as for B2
# B18: hu3G8VH-28/hu3G8VL-1 (antibody)
# VH: B2 VH with R99A, W104Y, A106D
# light: B1 light
# notes: as for B2
# B19: hu3G8VH-45/hu3G8VL-1 (antibody)
# VH: B2 VH with V2I, R5K, A10T, S72T, R99Q, W104Y, A106D
# light: B1 light
# notes: as for B2
# B20: hu3G8VH-36/hu3G8VL-1 (antibody)
# VH: B2 VH with V2I, R5K, A10T, H52L, R99Q, W104Y, A106D
# light: B1 light
# notes: as for B2
# B21: hu3G8VH-30/hu3G8VL-1 (antibody)
# VH: B2 VH with R99Q, W104Y, A106D
# light: B1 light
# notes: as for B2
# B22: hu3G8VH-12/hu3G8VL-1 (antibody)
# VH: B2 VH with V34M
# light: B1 light
# notes: as for B2
# B23: hu3G8VH-23/hu3G8VL-1 (antibody)
# VH: B2 VH with R99K, W104Y
# light: B1 light
# notes: as for B2
# B24: hu3G8VH-6/hu3G8VL-1 (antibody)
# VH: B2 VH with S62N, S64A, A106D
# light: B1 light
# notes: as for B2
# B25: hu3G8VH-18/hu3G8VL-1 (antibody)
# VH: B2 VH with V34M, S62N, S64A, R99H
# light: B1 light
# notes: as for B2
# B26: hu3G8VH-26/hu3G8VL-1 (antibody)
# VH: B2 VH with R99Q, W104Y
# light: B1 light
# notes: as for B2
# B27: hu3G8VH-17/hu3G8VL-1 (antibody)
# VH: B2 VH with V34M, S62N, S64A, R99A
# light: B1 light
# notes: as for B2
# B28: hu3G8VH-8/hu3G8VL-1 (antibody)
# VH: B2 VH with V34M, S62N, S64A, W104Y
# light: B1 light
# notes: as for B2
# B29: hu3G8VH-42/hu3G8VL-1 (antibody)
# VH: B2 VH with V2I, R5K, A10T, S72T
# light: B1 light
# notes: as for B2
# B30: hu3G8VH-29/hu3G8VL-1 (antibody)
# VH: B2 VH with R99H, W104Y, A106D
# light: B1 light
# notes: as for B2
# B31: hu3G8VH-34/hu3G8VL-1 (antibody)
# VH: B2 VH with V2I, R5K, A10T, W104Y
# light: B1 light
# notes: as for B2
# B32: hu3G8VH-16/hu3G8VL-1 (antibody)
# VH: B2 VH with V34M, S62N, S64A, R99K
# light: B1 light
# notes: as for B2
# B33: hu3G8VH-37/hu3G8VL-1 (antibody)
# VH: B2 VH with V2I, R5K, A10T, H52L, R99K, W104Y
# light: B1 light
# notes: as for B2
# B34: chimeric 3G8 antibody (ch3G8VH/ch3G8VL) (antibody, V domains shown)
# VH: QVTLKESGPGILQPSQTLSLTCSFSGFSLRTSGMGVGWIRQPSGKGLEWLAHIWWDDDKRYNPALKSRLTISKDTSSNQVFLKIASVDTADTATYYCAQINPAWFAYWGQGTLVTVSS
# VL: DTVLTQSPASLAVSLGQRATISCKASQSVDFDGDSFMNWYQQKPGQPPKLLIYTTSNLESGIPARFSASGSGTDFTLNIHPVEEEDTATYYCQQSNEDPYTFGGGTKLEIK
# notes: Mouse 3G8 variable domains (VH FR4 ala to ser) on human Cγ1 and Cκ constant regions; also called ch3G8-γ1
# Biological target: T1, soluble human CD16A (sCD16A) (human, UniProt P08637 17-203)
# T1 construct: CD16A truncated just prior to the transmembrane region, expressed in HEK-293; The last seven residues come from vector pCDNA3.1; also called soluble form of human CD16A
# Assay: ELISA, captured sCD16A
# Description: The plate was washed and dilutions of recombinant antibodies starting at 0.5 μg/ml in PBS-T-BSA were then added and incubated for 1 hr at room temp. Binding of recombinant antibodies to the captured sCD16A was then measured using an anti-human IgG-HRP conjugate and TMB substrate. After stopping color development using dilute sulfuric acid, the plate was read at 450 nm.
# T1 sequence (P08637 other isoform, or with tags, fused parts or gaps limits assumed): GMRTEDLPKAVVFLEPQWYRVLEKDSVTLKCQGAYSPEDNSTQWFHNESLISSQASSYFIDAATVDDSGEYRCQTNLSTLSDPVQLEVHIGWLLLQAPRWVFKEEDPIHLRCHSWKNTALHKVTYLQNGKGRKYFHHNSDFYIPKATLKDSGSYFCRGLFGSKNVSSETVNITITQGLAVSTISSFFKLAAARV
row,binding result,Binder
1,binds,B1
2,binds,B2
3,binds,B3
4,binds,B4
5,binds,B5
6,binds,B6
7,binds,B7
8,binds,B8
9,binds,B9
10,binds,B10
11,binds,B11
12,binds,B12
13,binds,B13
14,binds,B14
15,binds,B15
16,binds,B16
17,binds,B17

row,binding result,Binder
1,binds,B18
2,binds,B19
3,binds,B20
4,binds,B21
5,binds,B22
6,binds,B23
7,binds,B24
8,binds,B25
9,binds,B26
10,binds,B27
11,binds,B28
12,binds,B29
13,binds,B30
14,binds,B31
15,binds,B32
16,binds,B33
17,binds,B34
